In patent US20240043542A1 (published 2024):
Like-named read-outs stand apart in the source and are kept apart here.

Legend:
[1] = molecular target: T1, mouse B7-H4 on the cell surface (mouse, UniProt Q7TSP5 25-257); experiment: flow cytometry, transfected 293 cells
T1 construct: full-length, on transfected HEK293T cells
T1 sequence: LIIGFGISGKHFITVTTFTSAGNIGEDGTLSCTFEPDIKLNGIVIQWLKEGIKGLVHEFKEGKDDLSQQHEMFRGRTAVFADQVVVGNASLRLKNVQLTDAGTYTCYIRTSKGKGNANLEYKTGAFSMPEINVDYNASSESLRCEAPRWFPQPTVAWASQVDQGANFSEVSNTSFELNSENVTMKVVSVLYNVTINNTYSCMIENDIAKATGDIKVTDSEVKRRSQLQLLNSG
Experimental: (§1) Following incubation, cells were pelleted, washed and incubated with a secondary labeling antibody and samples were acquired on a flow cytometer. Data was analyzed using the FlowJo software and MFI was plotted vs. antibody concentration. The EC50 cell binding potency was calculated using nonlinear regression curve fit (GraphPad Prism).

[2] = molecular target: T2, human B7-H4 on the cell surface (human, UniProt Q7Z7D3 25-282); experiment: flow cytometry, SK-BR-3 cells
T2 construct: full-length human B7-H4 on transfected HEK293T cells or endogenous on SK-BR-3 cells; also called SK-BR-3 (endogenous human B7-H4)
T2 sequence: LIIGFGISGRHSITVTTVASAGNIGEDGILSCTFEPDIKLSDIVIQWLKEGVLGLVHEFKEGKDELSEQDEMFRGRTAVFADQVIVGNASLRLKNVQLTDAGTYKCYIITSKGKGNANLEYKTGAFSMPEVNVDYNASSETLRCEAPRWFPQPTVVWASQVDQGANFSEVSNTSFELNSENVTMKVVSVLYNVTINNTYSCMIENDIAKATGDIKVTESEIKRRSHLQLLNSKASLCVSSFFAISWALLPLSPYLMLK
Experimental: as §1

[3] = molecular target: T3, recombinant human B7-H4-huIgG1 (human); experiment: BLI, antigen on Protein A tips;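 note: Anti-B7-H4 antibodies assessed for affinity toward the B7-H4 extracellular domain using biolayer interferometry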
T3 construct: also called B7-H4-extracellular domain (ECD)
Experimental: (§2) Binding affinities of anti-B7-H4 antibodies to B7-H4-extracellular domain (ECD) were determined by biolayer interferometry (BLI). […] Anti-B7-H4 antibodies were then evaluated for binding.

[4] = molecular target: T4, mouse B7-H4 (recombinant, BLI) (mouse, UniProt Q7TSP5 29-256, limits assumed); experiment: BLI, antigen on Protein A tips;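 note: Anti-B7-H4 antibodies assessed for affinity toward the B7-H4 extracellular domain using biolayer interferometry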
T4 construct: also called murine B7-H4
T4 sequence: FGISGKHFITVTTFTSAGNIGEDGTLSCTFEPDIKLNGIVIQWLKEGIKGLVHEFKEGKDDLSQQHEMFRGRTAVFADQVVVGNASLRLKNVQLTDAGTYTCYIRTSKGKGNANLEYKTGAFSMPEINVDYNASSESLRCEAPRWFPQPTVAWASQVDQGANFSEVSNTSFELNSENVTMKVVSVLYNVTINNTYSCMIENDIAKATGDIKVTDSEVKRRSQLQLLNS
Experimental: as §2

[5] = molecular target: T5, cynomolgus monkey B7-H4 (recombinant, BLI) (cynomolgus monkey, UniProt Q7Z7D3 25-259 (human entry)); experiment: BLI, antigen on Protein A tips;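 note: Anti-B7-H4 antibodies assessed for affinity toward the B7-H4 extracellular domain using biolayer interferometry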
T5 construct: also called Cynomolgus B7-H4
T5 sequence: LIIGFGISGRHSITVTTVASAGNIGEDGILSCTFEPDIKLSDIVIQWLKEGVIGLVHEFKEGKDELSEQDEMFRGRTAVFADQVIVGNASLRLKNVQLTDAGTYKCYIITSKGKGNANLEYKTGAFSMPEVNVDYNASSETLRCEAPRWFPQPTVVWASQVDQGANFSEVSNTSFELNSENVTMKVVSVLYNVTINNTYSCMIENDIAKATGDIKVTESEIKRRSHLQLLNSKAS
Experimental: as §2

[6] = molecular target: T2, human B7-H4 on the cell surface; experiment: cell-based or functional assay
B7-H4 IgV-huIgG1 = molecular target: T6, B7-H4 IgV-huIgG1 (human); experiment: SPR, antibody captured by anti-human Fab, antigen in flow
T6 construct: also called N-terminal domain of human B7-H4
Experimental: Briefly, anti-human Fab antibody was immobilized on a carboxyl-derivatized SPR chip surface, and anti-B7-H4 antibodies were captured on the resulting surface at 5 ug/ml for 30 seconds.

[7] = molecular target: T2, human B7-H4 on the cell surface; experiment: cell-based or functional assay; remark: listed apart in the source
[8] = molecular target: T7, cynomolgus monkey B7-H4 on the cell surface (cynomolgus monkey, UniProt Q7Z7D3 25-282 (human entry)); experiment: flow cytometry, 100 nM, transfected HEK293T
T7 construct: full-length, on transfected HEK293T cells
T7 chain: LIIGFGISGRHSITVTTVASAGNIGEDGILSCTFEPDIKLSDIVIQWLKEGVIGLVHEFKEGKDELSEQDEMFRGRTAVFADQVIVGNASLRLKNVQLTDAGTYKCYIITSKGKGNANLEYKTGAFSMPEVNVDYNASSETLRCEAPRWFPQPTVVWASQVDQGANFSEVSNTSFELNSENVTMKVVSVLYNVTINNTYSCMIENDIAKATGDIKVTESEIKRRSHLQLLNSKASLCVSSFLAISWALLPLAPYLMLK
Experimental: (§3) HEK293T cell lines were transfected to express full-length human, cynomolgus monkey, mouse, or rat B7-H4. In addition, the endogenous human B7-H4 expressing SK-BR-3 breast cancer cell line was used to assess the ability of the antibodies to bind B7-H4 expressed on the cell surface. 1×10⁵ parental HEK293T or transfected HEK293T cell lines were incubated with 100 nM of the B7-H4 antibodies. Following incubation, cells were pelleted, washed, and incubated with a secondary labeling antibody, and samples were acquired on a flow cytometer. Fold binding over the parental cell line (FOP) was calculated as follows: MFI transfected HKE293T cells/MFI parental HEK293T cells.

[9] = molecular target: T1, mouse B7-H4 on the cell surface; experiment: flow cytometry, 100 nM, transfected HEK293T
Experimental: as §3

[10] = molecular target: T2, human B7-H4 on the cell surface; experiment: flow cytometry, 100 nM, transfected HEK293T
Experimental: as §3

[11] = molecular target: T7, cynomolgus monkey B7-H4 on the cell …; experiment: flow cytometry, transfected 293 cells
Experimental: as §1

| Binder | EC50 [1] | EC50 [2] | Kd [3] | Kd [4] | Kd [5] | Kd (B7-H4 IgV-huIgG1) | koff [3] | kon [3] | koff [4] | kon [4] | koff [5] | kon [5] | Donor 2 Max IFNγ [7] | Donor 1 Max IFNγ [7] | other results |
| --- | --- | --- | --- | --- | --- | --- | --- | --- | --- | --- | --- | --- | --- | --- | --- |
| B7-H4 antibody 15489 (antibody, human IgG1, kappa, V domains shown, human IgG1/kappa) VH: QVQLQESGPGLVKPSETLSLTCTVSGGSISSYYWSWIRQPPGKGLEWIGYIYSSGSTNYNPSLKSRVTISVDTSKNQFSLKLSSVTAADTAVYYCARGSGQYAAPDYGMDVWGQGTTVTVSS VL: DIQMTQSPSTLSASVGDRVTITCRASQSISSWLAWYQQKPGKAPKLLIYKASSLESGVPSRFSGSGSGTEFTLTISSLQPDDFATYYCQQDNSFPFTFGGGTKVEIKR | 17.5 nM | 31.7 nM | 63.7 nM | 201 nM | 72.1 nM | 23.7 nM | – | – | – | – | – | – | – | – | Donor 1 Max IFNγ [6]: 82.5 pg/mL; Donor 2 Max IFNγ [6]: 96.6 pg/mL; Donor 3 Max IFNγ [6]: 1130 pg/mL; Donor 4 Max IFNγ [6]: 800 pg/mL; aAPC Assay EC50 (IFNγ production) [6]: 291 nM |
| B7-H4 antibody 20516 (antibody, human IgG1, kappa, V domains shown, human IgG1/kappa) VH: QVQLQESGPGLVKPSETLSLTCTVSGGSIISYYWGWIRQPPGKGLEWIGYIYSSGSTSYNPSLKSRVTISVDTSKNQFSLKLSSVTAADTAVYYCARGSGLYAAPDYGLDVWGQGTTVTVSS VL: DIQMTQSPSTLSASVGDRVTITCRASQSISSWLAWYQQKPGKAPKLLIYKASSLESGVPSRFSGSGSGTEFTLTISSLQPDDFATYYCQQDNSFPFTFGGGTKVEIKR | – | – | 18 nM | 41.4 nM | 17.6 nM | – | 0.00738 s⁻¹ | 410000 M⁻¹ s⁻¹ | 0.0165 s⁻¹ | 398000 M⁻¹ s⁻¹ | 0.00783 s⁻¹ | 445000 M⁻¹ s⁻¹ | 441 pg/mL | – | – |
| B7-H4 antibody 15472 (antibody, human IgG1, kappa, V domains shown, human IgG1/kappa) VH: EVQLLESGGGLVQPGGSLRLSCAASGFTFSSYAMSWVRQAPGKGLEWVSTISGSGGSTYYADSVKGRFTISRDNSKNTLYLQMNSLRAEDTAVYYCARGAGHYDLVGRYWGQGTLVTVSS VL: not shown | – | 8.86 nM | 7.11 nM | 38 nM | 7.8 nM | – | 0.00497 s⁻¹ | 700000 M⁻¹ s⁻¹ | 0.016 s⁻¹ | 422000 M⁻¹ s⁻¹ | 0.00582 s⁻¹ | 746000 M⁻¹ s⁻¹ | – | – | FOP (fold binding over the parental cell line) [8]: 1280 fold; FOP (fold binding over the parental cell line) [9]: 685 fold; FOP (fold binding over the parental cell line) [10]: 580 fold |
| B7-H4 antibody 20502 (antibody, V domains shown, human IgG1/kappa) VH: QLQLQESGPGLVKPSETLSLTCTVSGGSIKSGSYYWGWIRQPPGKGLEWIGNIYYSGSTYYNPSLRSRVTISVDTSKNQFSLKLSSVTAADTAVYYCAREGSYPNQFDPWGQGTLVTVSS VL: EIVMTQSPATLSVSPGERATLSCRASQSVSSNLAWYQQKPGQAPRLLIYGASTRATGIPARFSGSGSGTEFTLTISSLQSEDFAVYYCQQYHSFPFTFGGGTKVEIKR | – | – | 1.2 nM | 3.4 nM | 1.2 nM | 2.03 nM | 0.00115 s⁻¹ | 936000 M⁻¹ s⁻¹ | 0.00213 s⁻¹ | 632000 M⁻¹ s⁻¹ | 0.00112 s⁻¹ | 962000 M⁻¹ s⁻¹ | – | – | koff (B7-H4 IgV-huIgG1): 0.000361 s⁻¹; kon (B7-H4 IgV-huIgG1): 178000 M⁻¹ s⁻¹ |
| B7-H4 antibody 22208 (antibody, human IgG1, kappa, V domains shown, human IgG1/kappa) VH: QLQLQESGPGLVKPSETLSLTCTVSGGSIKSGSHYWGWIRQPPGKGLEWIGNIYYSGSTYYNPSLKSRVTMSVDTSKNQFSLKLSSVTAADTAVYYCAREGSYPNWFDPWGQGTLVTVSS VL: EIVMTQSPATLSVSPGERATLSCRASQSVSTNLAWYQQKPGQAPRLLIYDASARVTGIPARFSGSGSGTEFTLTISSLQSEDFAVYYCQQYHSFPFTFGGGTKVEIKR | – | – | 5.67 nM | 16.7 nM | 5.44 nM | – | 0.00104 s⁻¹ | 184000 M⁻¹ s⁻¹ | 0.00167 s⁻¹ | 99500 M⁻¹ s⁻¹ | 0.00108 s⁻¹ | 199000 M⁻¹ s⁻¹ | – | – | – |
| B7-H4 antibody 20496 (antibody, human IgG1, kappa, V domains shown, human IgG1/kappa) VH: QLQLQESGPGLVKPSETLSLTCTVSGGSISSSVYYWSWIRQPPGKGLEWIGSILVSGSTYYNPSLKSRVTISVDTSKNQFSLKLSSVTAADTAVYYCARAVSFLDVWGQGTMVIVSS VL: DIQMTQSPSSLSASVGDRVTITCRASQSISSYLNWYQQKPGKAPKLLIYGASSLQSGVPSRFSGSGSGTDFTLTISSLQPEDFATYYCQQSYDPPWTFGGGTKVEIKR | 6.7 nM | 7.6 nM | 0.805 nM | 24.6 nM | 0.721 nM | – | 0.000555 s⁻¹ | 689000 M⁻¹ s⁻¹ | 0.0171 s⁻¹ | 692000 M⁻¹ s⁻¹ | 0.000569 s⁻¹ | 790000 M⁻¹ s⁻¹ | – | 186 pg/mL | EC50 [11]: 7.91 nM; FOP (fold binding over the parental cell line) [8]: 758 fold; FOP (fold binding over the parental cell line) [9]: 604 fold; FOP (fold binding over the parental cell line) [10]: 179 fold |
| B7-H4 antibody 20513 (antibody, human IgG1, kappa, V domains shown, human IgG1/kappa) VH: QLQLQESGPGLVKPSETLSLTCTVSGGSISDGSYYWSWIRQHPGKGLEWIGNIYYSGSTYYNPSLRSRVTMSVDTSKNQFSLKLSSVTAADTAVYYCARGLSTIDEAFDPWGQGTLVTVSS VL: not shown | – | – | 3.98 nM | 4.57 nM | 3.67 nM | – | 0.0018 s⁻¹ | 453000 M⁻¹ s⁻¹ | 0.00236 s⁻¹ | 517000 M⁻¹ s⁻¹ | 0.0018 s⁻¹ | 491000 M⁻¹ s⁻¹ | 240 pg/mL | 659 pg/mL | Donor 3 Max IFNγ [7]: 91.1 pg/mL; Donor 4 Max IFNγ [7]: 1630 pg/mL; aAPC Assay EC50 (IFNγ production) [7]: 1.16 nM |
| B7-H4 antibody 15483 (antibody, human IgG1, kappa, V domains shown, human IgG1/kappa) VH: QVQLQESGPGLVKPSQTLSLTCTVSGGSISSGGYYWSWIRQHPGKGLEWIGNIYYSGSTYYNPSLKSRVTISVDTSKNQFSLKLSSVTAADTAVYYCARGLSTIDEAFDPWGQGTLVTVSS VL: not shown | 8.82 nM | 14.8 nM | – | 263 nM | 108 nM | 18.4 nM | – | – | – | – | – | – | – | – | Donor 1 Max IFNγ [6]: 93.2 pg/mL; Donor 2 Max IFNγ [6]: 87.8 pg/mL; Donor 3 Max IFNγ [6]: 1380 pg/mL; Donor 4 Max IFNγ [6]: 939 pg/mL; aAPC Assay EC50 (IFNγ production) [6]: 729 nM |
| B7-H4 antibody 22216 (antibody, human IgG1, kappa, V domains shown, human IgG1/kappa) VH: QVQLQESGPGLVKPSQTLSLTCTVSGGSISDGSYYWSWIRQHPGKGLEWIGNIYYSGSTYYNPSLRSRVTMSVDTSKNQFSLKLSSVTAADTAVYYCARGLSTIDEAFDPWGQGTLVTVSS VL: DIQMTQSPSTLSASVGDRVTITCRASKSISSWLAWYQQKPGKAPKLLIYEASSLHSGVPSRFSGSGSGTEFTLTISSLQPDDFATYYCQQDNSYPYTFGGGTKVEIKR | – | – | 1.47 nM | 1.47 nM | 1.47 nM | – | 0.000359 s⁻¹ | 245000 M⁻¹ s⁻¹ | 0.000359 s⁻¹ | 245000 M⁻¹ s⁻¹ | 0.000359 s⁻¹ | 245000 M⁻¹ s⁻¹ | – | – | – |
| B7-H4 antibody 20506 (antibody, V domains shown, human IgG1/kappa) VH: QLQLQESGPGLVKPSETLSLTCTASGGSISHGGYYWSWIRQHPGKGLEWIGNIYYSGSTYYNPSLKSRVTMSVDTSKNQFSLKLSSVTAADTAVYYCARESSTISADFDLWGRGTLVTVSS VL: DIQMTQSPSSVSASVGDRVTITCRASQGISRWLAWYQQKPGKAPKLLIYAASSLQSGVPSRFSGSGSGTDFTLTISSLQPEDFATYYCQQAHTFPYTFGGGTKVEIKR | – | – | 1.69 nM | 3.53 nM | 1.48 nM | – | 0.000746 s⁻¹ | 441000 M⁻¹ s⁻¹ | 0.00164 s⁻¹ | 466000 M⁻¹ s⁻¹ | 0.000678 s⁻¹ | 458000 M⁻¹ s⁻¹ | 259 pg/mL | 981 pg/mL | Donor 3 Max IFNγ [7]: 86.1 pg/mL; Donor 4 Max IFNγ [7]: 2300 pg/mL; aAPC Assay EC50 (IFNγ production) [7]: 1.25 nM |
